Target: B cell antigen receptor (BCR; surface IgM) on DT40-ASF cells (chicken)
Assay: cell-based or functional assay

recovery of cell proliferation of doxycycline-treated DT40-ASF cells: > 1 µg/mL
Substance: antibody M4 (mouse-derived anti-chicken IgM monoclonal antibody)

— patent US20080227123A1
